In the Immune Epitope Database (IEDB):

Assays:
[1] = molecular target: HLA-A*02:01; experiment: IEDB peptide-MHC binding, purified MHC/competitive/fluorescence; filed as Kd, often an IC50 or EC50 that approximates it; ≥ and ≤ were set here for values at or beyond the usual limits of such assays
[2] = molecular target: HLA-A*30:01; experiment: as above
[3] = molecular target: HLA-B*08:01; experiment: as above; conditions: source organism: Mycobacterium tuberculosis CDC1551
[4] = molecular target: HLA-A*02:06; experiment: as above
[5] = molecular target: HLA-B*46:01; experiment: IEDB peptide-MHC binding, purified MHC/direct/fluorescence; filed as Kd, often an IC50 or EC50 that approximates it; ≥ and ≤ were set here for values at or beyond the usual limits of such assays; conditions: source organism: Mycobacterium tuberculosis
[6] = molecular target: HLA-B*15:01; experiment: as above
[7] = molecular target: HLA-A*03:01; experiment: as above
[8] = molecular target: HLA-B*58:01; experiment: as above
[9] = molecular target: HLA-B*40:01; experiment: as above
[10] = molecular target: HLA-A*11:01; experiment: as above
[11] = molecular target: HLA-B*51:01; experiment: as above; conditions: source organism: Mycobacterium tuberculosis
[12] = molecular target: HLA-B*27:05; experiment: as above
[13] = molecular target: HLA-A*01:01; experiment: as above
[14] = molecular target: HLA-B*48:01; experiment: as above; conditions: source organism: Mycobacterium tuberculosis
[15] = molecular target: HLA-B*15:09; experiment: as above; conditions: source organism: Mycobacterium tuberculosis CDC1551
[16] = molecular target: HLA-B*18:01; experiment: as above; conditions: source organism: Mycobacterium tuberculosis
[17] = molecular target: HLA-B*07:02; experiment: as above
[18] = molecular target: HLA-A*69:01; experiment: as above
[19] = molecular target: HLA-B*15:17; experiment: as above; conditions: source organism: Mycobacterium tuberculosis
[20] = molecular target: HLA-B*57:01; experiment: as above; conditions: source organism: Mycobacterium tuberculosis
[21] = molecular target: HLA-A*31:01; experiment: as above
[22] = molecular target: HLA-B*08:02; experiment: as above; conditions: source organism: Mycobacterium tuberculosis CDC1551
[23] = molecular target: HLA-A*02:01; experiment: IEDB peptide-MHC binding, purified MHC/competitive/radioactivity; filed as Kd, often an IC50 or EC50 that approximates it; ≥ and ≤ were set here for values at or beyond the usual limits of such assays
[24] = molecular target: HLA-A*02:17; experiment: as above
[25] = molecular target: HLA-A*24:02; experiment: IEDB peptide-MHC binding, purified MHC/competitive/fluorescence; filed as Kd, often an IC50 or EC50 that approximates it; ≥ and ≤ were set here for values at or beyond the usual limits of such assays
[26] = molecular target: HLA-B*27:05; experiment: as above
[27] = molecular target: HLA-B*35:01; experiment: IEDB peptide-MHC binding, purified MHC/direct/fluorescence; filed as Kd, often an IC50 or EC50 that approximates it; ≥ and ≤ were set here for values at or beyond the usual limits of such assays
[28] = molecular target: HLA-A*24:03; experiment: as above
[29] = molecular target: HLA-A*02:01; experiment: as above
[30] = molecular target: HLA-A*26:01; experiment: as above
[31] = molecular target: HLA-A*30:01; experiment: as above
[32] = molecular target: HLA-B*08:01; experiment: as above
[33] = molecular target: HLA-A*02:03; experiment: IEDB peptide-MHC binding, purified MHC/competitive/radioactivity; filed as Kd, often an IC50 or EC50 that approximates it; ≥ and ≤ were set here for values at or beyond the usual limits of such assays; conditions: source organism: Dengue virus 2 Jamaica/1409/1983
[34] = molecular target: HLA-A*02:06; experiment: as above; conditions: source organism: Dengue virus 2 Jamaica/1409/1983
[35] = molecular target: HLA-B*15:01; experiment: IEDB peptide-MHC binding, purified MHC/competitive/fluorescence; filed as Kd, often an IC50 or EC50 that approximates it; ≥ and ≤ were set here for values at or beyond the usual limits of such assays; conditions: source organism: Human immunodeficiency virus 1
[36] = molecular target: HLA-A*11:01; experiment: as above; conditions: source organism: Human immunodeficiency virus 1
[37] = molecular target: HLA-A*01:01; experiment: as above; conditions: source organism: Human immunodeficiency virus 1
[38] = molecular target: HLA-B*18:01; experiment: as above; conditions: source organism: Human immunodeficiency virus 1
[39] = molecular target: HLA-A*02:03; experiment: as above; conditions: source organism: Human immunodeficiency virus 1
[40] = molecular target: HLA-B*15:17; experiment: as above; conditions: source organism: Human immunodeficiency virus 1
[41] = molecular target: HLA-B*57:01; experiment: as above; conditions: source organism: Human immunodeficiency virus 1
[42] = molecular target: HLA-A*02:11; experiment: as above; conditions: source organism: Pseudomonas putida F1
[43] = source organism: Mycobacterium tuberculosis CDC1551
[44] = source organism: Mycobacterium tuberculosis
[45] = source organism: Dengue virus 4 Philippines/H241/1956
[46] = source organism: Shigella boydii Sb227
[47] = source organism: Corynebacterium glutamicum
[48] = source organism: Dengue virus 2 Jamaica/1409/1983
[49] = source organism: Human immunodeficiency virus 1
[50] = source organism: Escherichia coli
[51] = source organism: Dengue virus 1 Singapore/S275/1990
[52] = source organism: Giardia lamblia ATCC 50803
[53] = source organism: Pseudomonas putida

## ALRSRWRAL
[1]; [43]
  Kd: ≥ 20000 nM
[2]; [43]
  Kd: 132 nM
[3]
  Kd: 14 nM
[4]; [43]
  Kd: 556 nM
[5]
  Kd: ≥ 20000 nM
[6]; [44]
  Kd: 504 nM
[7]; [44]
  Kd: ≥ 20000 nM
[8]; [44]
  Kd: ≥ 20000 nM
[9]; [44]
  Kd: ≥ 20000 nM
[10]; [44]
  Kd: ≥ 20000 nM
[11]
  Kd: ≥ 20000 nM
[12]; [44]
  Kd: ≥ 20000 nM
[13]; [44]
  Kd: ≥ 20000 nM
[14]
  Kd: ≥ 20000 nM
[15]
  Kd: ≥ 20000 nM
[16]
  Kd: ≥ 20000 nM
[17]; [44]
  Kd: 59.5 nM
[18]; [44]
  Kd: ≥ 20000 nM
[19]
  Kd: ≥ 20000 nM
[20]
  Kd: ≥ 20000 nM
[21]; [44]
  Kd: ≥ 20000 nM
[22]
  Kd: ≥ 20000 nM

## DLMEFIDGI
[23]; [45]
  Kd: 74.2 nM
[24]; [45]
  Kd: 1970 nM

## EYARQVQMI
[25]; source organism: Vibrio vulnificus YJ016
  Kd: ≤ 1 nM

## GLDDSALDA
[1]; [46]
  Kd: 402 nM
[4]; [46]
  Kd: 2100 nM

## GRADTKILF
[26]; source organism: Influenza A virus (A/swine/Hong Kong/4/1976(H3N2))
  Kd: 74.1 nM

## GRQAPTADV
[26]; source organism: Escherichia coli str. K-12 substr. MG1655
  Kd: 285 nM

## IVAWTRTAT
[6]; [47]
  Kd: ≥ 20000 nM
[27]; [47]
  Kd: 893 nM
[7]; [47]
  Kd: ≥ 20000 nM
[8]; [47]
  Kd: ≥ 20000 nM
[9]; [47]
  Kd: ≥ 20000 nM
[10]; [47]
  Kd: ≥ 20000 nM
[28]; [47]
  Kd: 13100 nM
[12]; [47]
  Kd: ≥ 20000 nM
[13]; [47]
  Kd: ≥ 20000 nM
[29]; [47]
  Kd: ≥ 20000 nM
[30]; [47]
  Kd: ≥ 20000 nM
[31]; [47]
  Kd: ≥ 10000 nM
[32]; [47]
  Kd: 2720 nM
[17]; [47]
  Kd: 53.6 nM
[18]; [47]
  Kd: ≥ 20000 nM
[21]; [47]
  Kd: ≥ 20000 nM

## IYLRRYFEI
[25]; source organism: Escherichia coli E22
  Kd: ≤ 0.1 nM

## IYNTVVLTI
[25]; source organism: Vibrio parahaemolyticus AQ3810
  Kd: 0.4 nM

## KLAEAIFKL
[33]
  Kd: 8.68 nM
[24]; [48]
  Kd: 19.1 nM
[34]
  Kd: 14.8 nM

## KSLYNTVAVLY
[35]
  Kd: ≥ 20000 nM
[36]
  Kd: ≥ 20000 nM
[37]
  Kd: 4460 nM
[38]
  Kd: 275 nM
[2]; [49]
  Kd: 4780 nM
[39]
  Kd: ≥ 20000 nM
[40]
  Kd: 484 nM
[41]
  Kd: 4820 nM
[4]; [49]
  Kd: 300 nM

## LAAPCRNAL
[6]; [50]
  Kd: 3730 nM
[27]; [50]
  Kd: 25.6 nM
[7]; [50]
  Kd: ≥ 20000 nM
[8]; [50]
  Kd: ≥ 20000 nM
[9]; [50]
  Kd: ≥ 20000 nM
[10]; [50]
  Kd: ≥ 20000 nM
[28]; [50]
  Kd: ≥ 5000 nM
[12]; [50]
  Kd: ≥ 20000 nM
[13]; [50]
  Kd: ≥ 20000 nM
[29]; [50]
  Kd: ≥ 20000 nM
[30]; [50]
  Kd: ≥ 20000 nM
[31]; [50]
  Kd: ≥ 10000 nM
[32]; [50]
  Kd: 849 nM
[17]; [50]
  Kd: 27.6 nM
[18]; [50]
  Kd: ≥ 20000 nM
[21]; [50]
  Kd: ≥ 20000 nM

## PYPYLFYKF
[25]; source organism: Vibrio cholerae B33
  Kd: ≤ 0.1 nM

## RLITANPIV
[23]; [51]
  Kd: 61.3 nM
[24]; [51]
  Kd: 121 nM

## RLLTKPWDV
[23]; [48]
  Kd: 27.6 nM
[24]; [48]
  Kd: 1430 nM

## RQVCFFSAT
[1]; [52]
  Kd: 3270 nM
[4]; [52]
  Kd: 6.3 nM

## VMTEGRHAV
[42]
  Kd: ≤ 1 nM
[6]; [53]
  Kd: 3700 nM
[7]; [53]
  Kd: ≥ 20000 nM
[8]; [53]
  Kd: ≥ 20000 nM
[9]; [53]
  Kd: ≥ 20000 nM
[10]; [53]
  Kd: ≥ 20000 nM
[28]; [53]
  Kd: ≥ 20000 nM
[12]; [53]
  Kd: ≥ 20000 nM
[13]; [53]
  Kd: ≥ 20000 nM
[29]; [53]
  Kd: 409 nM
[30]; [53]
  Kd: ≥ 20000 nM
[32]; [53]
  Kd: 7120 nM
[17]; [53]
  Kd: 330 nM
[18]; [53]
  Kd: 712 nM
[21]; [53]
  Kd: 991 nM
